The values below come from a protein production outcome set (Wang et al. 2014).

The data set in a line: label from the status in PepcDB records.
Regarding “MDKRIATIILSIVNIIGIFEFPLYESFIGFFFISSALSILYESQLSLIVPTVLFASLVLLHIITIQLQKLIILSILMLISIIGKNNKWIYSILITLAPGLIINNLYLLLIVLALLIPLLIKLGGEPRAIIISGILYLIYSGIIFPNNEALANQISQISYFYLMFGIIGIIVEDKRITRITLRKILPYLSFIPASFASIMLGYPSDSSFIYWSASSFYFSHLYLPWIYEIGYNSNQHLIASWFLAYLLTLIIKNPLITAEVFLGIFTFLSGLISYYVFKRLNLKYPLLFSLLYQINIFNPIISHSISVFSYAFLPLVLFFAYNKNKVLYSILTLTAASSIPIFISTLVIPLVYRRYYFLLYALGVNAFWLIPFLIFGYDKFTFNVSNIEILISIILVSISVLLYQLRFKNIEILYMIFISFVLLILGINTGPLILLATILTLGSLRDISILYLTLLSGLIILSATSFSYGVISGYANTTFYTYNLPNLPKPGEYGFGITTLVNDLNLTASGMPTESISYNVRYFIYNSRVIENPLYFGFPIPAIPNYTPQLTFSYIYSNSSVKVIYSPFNKPLGLMVYSNVTPSKISIVFPTRIENISGIKGLVKNYTIQIITNTSLTIIGGKVTVDNKSIFSSYYKPKIVTSIMIGEITEVIDSNYSIYLPIHESLTINGKVVNHPIILPPGKYTIVISDEKIEYVSYASIFLTIVSLVLLIRRGMKV”, the protein production result is “failed”.
To “MDKRIVGTNAGKVWCALKEIGEISIPELARRLNLSVESTALAAGWLARENKICIQRKNGLIALSDESAFPFSFG” belongs “failed”; to “MDKRLIVMHNLSRHYGKQYWWQQNSLEDWLMMILIQRTSSKNVAQAVHNLQPYMQVDRLMALSQSELETLVRPAGFYRQKAQRIHDLLTWFVAQGGSFEKIAEKPAAELRETLLALNGIGNETADVMLMYTFGKKTFVADTYAMRLFNRLGFGPYTNYAKMQADFAPALDQITLDEAREWHALIDEHGKTQVRHAYDDRFLLQPDLTEAAWPPEAVQVEPPHDDPGSGKWRHAADPSAMTHK”, “failed”; to “MDKSIIQLVDELPSDNITVKVLNALDYVAPGQWQNLVGFDNTIRAVTGETDARVIQKIRDRATSLYNDPQQGYQSAVKLYQTIDKADTAMATAALANKVGEKIGFLSFLSNITPKADVTQSIDLVSKIAIEIIVFCKLNGIPQPNPQEFANSLANNYQDASLIRMVALVCLDGILPLGPDFLSKIQGIISGAESNSITQNPVFLAVNSSLPGSNPTDKLGFINQGFNAVQGWMNNLVTKTGITPQSISSHLGNFIQIADDNLDFVAAFLDQTTNYFEHTGIQSVARRLILKAHTLVKEEIKQETTQPIQDSSSAVKSDTSQYAVSKKIEVWDEEEEDWYQATIEKVQDDQFFINYIGYGSSHNEWVGKDDIRATDYASSDANGYAVGKKVKCWSDEEETWYTATIEKIQGNQYFIHYTGYDSSYDEWVNSDDIS”, “failed”.
Regarding “MDKVFAPWRIEWVEREKTNPDVDCVFCAFQAQDDDRANNLVARSDHAFVLLNNYPYNPGHVMVIPHTHTGEYGDLDDKTLLDHGRLKQRTFDALETALSPDAFNAGLNLGGSAAGGSIDDHLHTHVVPRWNGDTNFMPVISDTKVIVEAVEETYDRLYAAFASQDGTTAPEDGAVRIE”, the protein production result was “failed”.
With “MDLALAQVDSTVSGLYDALDLIGVLLNGIIGGTIARQRGYDIIGFLFLALFSALGGGMIRDMLIQQGTVAAIDNQIYLALAFSGALIAMAVNFKGRVWELFKVHGDAIVLGVWAVTGSVKAMNAGVAPLPSIFMGVLTAVGGGMVRDVATGQTPTIFGGGTLYAVPATLSATSMVIFHSFDQVILGMIISPFLGIALAVTAYWCGWVIPVNTDFAPVNLTVSQLRAMLSKAERKDKDQK” the entry was “failed”; with “MDLDPTLLTWAFVVGGALLMLIEAVVPGGIAFFLGIGGVVVGGLRALGLLVDPLSSVVTWVFLSTGLTIALRPLMLRFVQGDVSLAMTDEDAEAMGETVTVVEAVGPESPGRIRFRGATWDARTLEGRLPDGAEAQLLYRDNLTWVVEPADHADLDAELSAAIGSDVSEGDANRSPSTDDTTSDDSGLGYDPSARSSS”, “failed”.
To “MDLENNNNTPLTGKQAEKCAKKRKCVITLDEKQVESKRLKKEESNVEATSRPPAQSPKKRLHLNGKPMQNKDLNFKYGNYKHYYGKRILNKDFHDIRLDVLGTQPDLFRNKQLLDIGCNSGHLSIQIARKFEVKSLVGLDIDRGLINDAQKTVSHLKRHATPGQGIPHIQFVHGNYVLEDDVLLEIERPQFDVILCLSVTKWIHLNFCDSGLKQAFRRMYLQLRPGGKLILEPQSFDGYKRRKKLSEQIRDNYNAIKFRPDHFTEYLLSPEVGFAEMKLMGIPEHCKVGFKRPIQIFTKS” belongs “failed”; to “MDLFVMVVGASGIGDGGEQKYNYKLRAWTNEDDPRQTKIVTTNADPEFREVLHLPQNMASSFLNLELFSVNSADTDAFFIGRANTALPMKTNANVYRKIKLQNLDTSGNIVTVGYLEVYLGLETG”, “failed”; to “MDLKILSLATDKTTDKLQEFLQTLKDDDLASLLQNQAVKGRAVGTLLRAVLKGSPCSEEDGALRRYKIYSCCIQLVESGDLQQDVASEIIGLLMLEVHHFPGPLLVDLASDFVGAVREDRLVNGKSLELLPIILTALATKKEVLACGKGDLNGEEYKRQLIDTLCSVRWPQRYMIQLTSVFKDVCLTPEEMNLVVAKVLTMFSKLNLQEIPPLVYQLLVLSSKGSRRSVLDGIIAFFRELDKQHREEQSSDELSELITAPADELYHVEGTVILHIVFAIKLDCELGRELLKHLKVALRCF”, “failed”.
To “MDLLEYQVKEWFGEIGIPVLPSQRIDHPTDLKRLKIRYPIVLKSQVHAGEREKVGGVRMVETTIDAIAAAQTIFNLSIWGELPEVLLAESKYNSHQEFYLAVVLDTAVCRPVLLGSTEADIDLELADQKMQYVVVEQEFSPFYARRLALKMGLQGTLMQSVSTVLEKMYQLFVQKDLDLVEINPLGVNLAGEVMALNGKVGVNERAIGRHPEIAAMAAKIIPRHYDKSFSNGRDWNNLEKQRRIGILGNGTGSILATYDLVASGGGKPGICLNLRHAAITDLSPTKFGDRLTKGLNTLAADKNTQVILINLLGSIPQPEEAAQAIAQFIQQNKGEYPPSIAKSNGKNLSQHQSPQLVIRLAGSELNAAKEVLAALQTHEEGLILVEDLDEAVATAVRLTKSHAYKKVS” belongs “failed”; to “MDLLLKGGWVVTQERVEQADIAVEGEKIAAIGPDLEARAAAVRDVTGKYILPGAIDAHVHYQMPIGELLTADDWFTGTRLAACGGVTTVIDYAEPAGPAEPLTEALAKRLEEAREQACVDYGLHQVVLPGQEEDTGELAKVIEQGVTSFKVFTTYKQCLGYAAIGRLLKQARRLGALVTVHCEDHDLVTARRRELEATGQTDPAYHANSRPAAAEVKAIEKVIRQAAAAGAPVYIVHVSTGGGAELIAAARARGQQVFGETCPHYLLLTEERYAGPDSRLFLMCPPLRTVKDNRILWQHLASGDLQVVATDHCSYSPEQKAAGTAFYNTPSGVPGTETLLPLLYSYGVRQGRLTLPQMVRVLATNPARLFGLYPRKGCLAPGSDADLVVFDPSQEVILKASDLHSAAAYTIFEGFALQGYVEATYLRGRLIYDLGRFLGRAGQGEFIPGKITVL”, “failed”.
As to “MDLLRGSDYVGDGAWFRAEALQEIGAFAEAPDADSYDALLRIHDRYGAMVIGHIPDMLLHAPSRGTADGSGQRAALDAHLARNGGGADIEAGPAAGTRRIRYPAPEQARLSIIVADAGDGFHLSPCIDALQASLGGCACEILAIAADGEPGDAAKLLRCDPGLGLAARFQLGAEAASGDFLLFIDSRVELAQPDGLQALLGLAARPEVGAAAPRLLRPDGEALWRGPLLIGAGEGAAALFCDAGASEAGHLNRQAVEHNPGALRLECLLMAKAFYQQIGGMDASLPTLLDTAVDLGLRIRAAGRLPVWTPFVSARRHGALDVSEPPETCDADALSLRWNGWLGQDPAHNRHLSLAADKAFQIEDVYSAQWDASFHERTRVLALPAESKATEARMASPFRILQEDCQCQLTQIPAGQRLPSAGEIERMAPDALLMSARFDSASLAWLRGYRQRRPDVLAVLMLDKLDFGAGTTHRYGHSLLQAMAGMADRVIVPTESLYRMALAFADDVRLVPDGLEEARWFELQSLRRVGKKPRVGWVGSAAEAPDLLMLSGIILATAAELDWIVLGDCPEVLKPCLAEYHAFDLSSDDYPTRLASLSLDMAVMPKAATLANETGSPLRMFEFGALGVPVICSAVGELGLSPAPVARVENDVSSWGEALRELARDAAAAAQAGDGLRAWVRENCGLKRHLPLWQQAISR”, the protein production result is “failed”.
With “MDLNRMGKDEYYVQITVDGKEVHSKADNGQKYKDYEYKLTGFDKDGKEKELEFTAQKNLRKEAFLRVYHSDKKGVSAWEEVKKDELPAKVKEKLGVKLEHHHHHH” the entry was “not failed”.
